Assay results from the DeepSol protein solubility set.

Assay: soluble on expression in E. coli; label from the status in PepcDB or PDB records

| Sequence | soluble on expression in E. coli |
| --- | --- |
| MGSDKIHHHHHHMHNVDQQELSKFEQMAHSWWDPNGSFKPIHLLNPLRFNYIQTKANGLFGKKVLDVGCGGGILSEAMAQAGAIVTGIDMTTEPLEIAKQHAIENGLTIHYQQTTVEDLRLNHTACNAEKFDVVTCMEMLEHVPDPLSVIQSCKALLKPDGVLFLSTINRTLKAYMLVVIGAEYLLKMLPKGTHEFEKFIKPAELLTWCDQASLECKEMKGYHFNPLTEKFWLNNDVSCNYIAMLKAK | not soluble |
| MAMKRREMLSLCGKSVIALGCGGLPAILRAQGRFPSKALTYVVAYTPGSANDILVRILAPELGTQLGQSIIVDNKPGAGGSIGMAAVAQSKADGYTLGLGSTATMAINRALYKNLPYDPLRDFESVVKFASTANVLVVPAGGPAKTLADLKPRDGKPLMFSSPGNGTTQHLAGVLFSSTTKLPTEHVPYRGPAESVMAVASGEVDFSLASLPSALAQIRAGRLRVLGCTSLKPPSSLPQAVSLAEQGLPGFERTEVWFGLVVPSGTPDQARLALEQASVQVLGKQDVREKLEQAGYQPANPQSEGKFDPFVREQVAFWADLVKQAGASIDLEHHHHHH | soluble |
| VVGGTDADEGEWPWQVSLHALGQGHICGASLISPNWLVSAAHCYIDDRGFRYSDPTQWTAFLGLHDQSQRSAPGVQERRLKRIISHPFFNDFTFDYDIALLELEKPAEYSSMVRPISLPDASHVFPAGKAIWVTGWGHTQYGGTGALILQKGEIRVINQTTCENLLPQQITPRMMCVGFLSGGVDSCQGDSGGPLSSVEADGRIFQAGVVSWGDGCAQRNKPGVYTRLPLFRDWIKENTGV | soluble |
| MGSDKIHHHHHHMRFTEGLWRLREGVQLFRPEQVYEYSCDGKKLILRSPFRRVEHRGQTLQGPVFEIEISSPFENVIRIRFRHFKGVLEKPPYYEIYQDESFTPDIKETEGSFIFTSGKAKAIIRKNPFGVEFFYEDRFLTKSDLGYAVAPEGRFCLERLHLSVGEMIYGLGERFSAFVKNAQRVVMWNEDAGTISDMTYKNIPFYVSIRKYGVFVNDPGKVDFEIATEHVEKVQFSVKGETLDYFIIAGKDLKEVLERYTLLTGRPELPPAWSFGLWLTTSFTTQYDERTVMEFVDGMRERDIPLHVFHFDCFWMKEFHWVDLEWNRENFPDPEGLLKRLKEKGLKVCVWINPYVSQFSSLFDEGKEKGYFLKKPDGDVWQTDDWQPGMAIIDFTNPEVRKWFASKLERLIDMGVDCFKTDFGEKIPTDVVYYDGSDPEKMHNYYTYLYNKVVFETIERKLGKRNAVVFARSATAGSQKFPVHWGGDCLASYESMAETLRGGLSLALCGFGFWSHDIGGFEDITTPDLYKRWVAFGLLSSHSRLHGNSMYKVPWNFDEEAVEVLRFFTKLKCKLMPYIFASAVEVHERGIPVMRPMILEFPDDPTCLYLDRQYMLGESLLVAPIFSETGEVTYYLPEGVWTHFLTGERVEGGRWRTEKYDYFGLPLFTRPNSIIPTGSVDDRPDYDYADGVTLNVFEISNKTAHVYNTRGEVELSVKVERKGNEIHVEVLKDSRKPWKLLFWNERLEAVEGAETRELEKGTEVVLSFQRAILKTK | not soluble |
| MIIGVLAIQGDVEEHEEAIKKAGYEAKKVKRVEDLEGIDALIIPGGESTAIGKLMKKYGLLEKIKNSNLPILGTCAGMVLLSKGTGINQILLELMDITVKRNAYGRQVDSFEKEIEFKDLGKVYGVFIRAPVVDKILSDDVEVIARDGDKIVGVKQGKYMALSFHPELSEDGYKVYKYFVENCVKK | soluble |
| MIVILDNGGQYVHRIHRSLKYIGVSSKIVPNTTPLEEIESNKEVKGIILSGGPDIEKAKNCIDIALNAKLPILGICLGHQLIALAYGGEVGRAEAEEYALTKVYVDKENDLFKNVPREFNAWASHKDEVKKVPEGFEILAHSDICQVEAMKHKTKPIYGVQFHPEVAHTEYGNEILKNFCKVCGYKFE | soluble |
| MDLQIIQNKIFEVRGCRVMLDFHLAELYQVETRALKQAVKRNLSRFPSDFAFQLTKDEWQGLITNCDKFPENIRHTPTPPLAFLEQGVAMLSSVLRSQTAIDVNISIMRAFVLMRQMSIGYEELLKRIEELEQSTDAQFSEVYQALTQLLSKPDPKPRKPIGYRTYDE | not soluble |
| MSVKKKTQVRTGKMVRELMLADEDVNASLIMVYSENGVNAEIKIEGLTPKCNEELFLSGNVDWNKSVIYKIVDFTGNAEVGKVTLTAMNKNNVSLEIERVMWSKENKEAAEQEETQVEAAPKKEVVVEAPKAITPAPKPVTRVETPAMAPKPTPVPTPKPVSVEAAVELVTPAPVKKAVPTPVTKQETAPVAPAKPKQPALTETNSKLQENYVKLVKKTIEVCQDYELGIDIDDSIESLKEELQSQGISVTFDKEIMDVVNRLRSLQDKGIKVEKVLNLL | not soluble |
| HQQQRSVMTEEYKVPDGMVGFIIGRGGEQISRIQQESGCKIQIAPDSGGLPERSCMLTGTPESVQSAKRLLDQIVEKGR | soluble |
| MAGDPMSATETITTNARVLGADPLVKDGFGEEDMLTLVLPYIKTAREGVLRLGELLETYGTYESNGIAFADTEEIWWLKTIGGHNWIARRVPDDAYVTNPNQLGIDHYEFENPDDYLASPDIRDFINKHHLDLTYSNEHFNPRYAFGSQRDKDHHYNTPRARAMLEHHHHHH | not soluble |
| MTRAERKRQHINHALSIGQKRETGLDDITFVHVSLPDLALEQVDISTKIGELSSSSPIFINAMTGGGGKLTYEINKSLARAASQAGIPLAVGSQMSALKDPSERLSYEIVRKENPNGLIFANLGSEATAAQAKEAVEMIGANALQIHLNVIQEIVMPEGDRSFSGALKRIEQICSRVSVPVIVKEVGFGMSKASAGKLYEAGAAAVDIGGYGGTNFSKIENLRRQRQISFFNSWGISTAASLAEIRSEFPASTMIASGGLQDALDVAKAIALGASCTGMAGHFLKALTDSGEEGLLEEIQLILEELKLIMTVLGARTIADLQKAPLVIKGETHHWLTERGVNTSSYSVR | soluble |
| MAHHHHHHMERMSLAVVRQLDADHERGGIWYLSGHRDHVLSIAASSHGVFATCDAKGLGLLWKHDTSHSNSDPSHVSRISSEGPAIVAACFPSSTRLCTAQGNGRVGVWDIEASTEVQSLSRLPSRGKSVNWPVINALSAWESDLVAYGGDDGYLVLSSLAVRNPVVSVNLRVPITSVAAAATSLLVGDVLGNIRCFDTRTFKSLYCFQGHRGVVTSVSVKEDASLAVSYGMDDSLALWNALPFSLTTEDRLIHRGEFHQGDTKTLLRCDWATSGAALVPVSDGRVVYLSAPTLDGIRTILPGRHRREPAQCAAFIGDGYAVSSAETEVILQRI | not soluble |
| MGSDKIHHHHHHMIEVTQGSSPLVLGLPHTGTDVPAEVAQHLNDRGQALADTDWHIHDLYAGLVEGVTTVRTPIHRYVIDVNRDPEGVSLYPGQNTTTLVPLTDFDGHPIWQQEPDAAETAHRLETYHVPYHAALEAEMKRVAGLHGFAILYDCHSIRGDIPFLFEGRLPDFNVGTNLGATCAPSIEDMVFQRCQRAEGYTSVLNGRFKGGWTTRHYGRPDQGWHAIQMELAQATYCDEQPPWRYDPVRADRLRGHLTQILTDLTEWRPA | not soluble |
| MNQVEMTEFPVGKPQEALYGVASTPDGALWFTLAKGNAIGRLSPDGAVSRFPLPHADGQPTTITCGPDGRPWFTLSSANAIGRLAPDGALRMFELPRPASRPFGIAGGHDGCLWFAEMAGDRIGRITIDGDIEEYDLPVKGGYPSCMAAGRDGLMWFTLNQAGAVGSISATAAPRIFPLGAADAAPVGIASDAQGALWIAQAGNGAIARFDAGGRITEFPLHSRAARPHAIAADAAGNLWFTEWGANRIGRISEAGDLAGYELAAPGSEPHGIAIDPHGCVWAALETGRLVRLQASPRDLEHHHHHH | not soluble |
| MWLIILWNAKPDTPLFNFKDEVIKYKTYEPFESSIKRVNTTIKNGSKGKTLTEMINGYRADNDIRDEICNFNILKNKIRDMKNQQGNTMESYF | not soluble |
| MSIEVGNKLKGKVTGIKKFGAFVELPEGKSGLVHISEVADNYVENVEEHLSVGDEVDVKVLSIADDGKISLSIKKAKDRPRRQHTSKPSHQKPVQKAEDFEKKLSNFLKDSEDKLTSIKRQTESRRGGKGSRR | not soluble |
| KVWAFDIQPQALNNTRCRLQEAGYSNVRLILDGHENLKQYIPKPLDAAIFNFGWLPGGDKSLTTRTETSIAALSATLSLLKENGMLIAVLYPGHENGKQEAEAIEQWAKNLPQEQFAVLRYGFTNRKNSPPYLLVFEKLRQK | not soluble |
